{"source": "paper PMC2871031", "about": "(Structure (London, England : 1993), 2010)", "molecules": {"B1": {"name": "ClpA-Δ15 (linker deletion mutant, residues 145 to 159 deleted) (enzyme, E. coli, UniProt P0ABH9 1-758, looked up)", "chain": "MLNQELELSLNMAFARAREHRHEFMTVEHLLLALLSNPSAREALEACSVDLVALRQELEAFIEQTTPVLPASEEERDTQPTLSFQRVLQRAVFHVQSSGRNEVTGANVLVAIFSEQESQAAYLLRKHEVSRLDVVNFISHGTRKEEQAGGEERMENFTTNLNQLARVGGIDPLIGREKELERAIQVLCRRRKNNPLLVGESGVGKTAIAEGLAWRIVQGDVPEVMADCTIYSLDIGSLLAGTKYRGDFEKRFKALLKQLEQDTNSILFIDEIHTIIGAGAASGGQVDAANLIKPLLSSGKIRVIGSTTYQEFSNIFEKDRALARRFQKIDITEPSIEETVQIINGLKPKYEAHHDVRYTAKAVRAAVELAVKYINDRHLPDKAIDVIDEAGARARLMPVSKRKKTVNVADIESVVARIARIPEKSVSQSDRDTLKNLGDRLKMLVFGQDKAIEALTEAIKMARAGLGHEHKPVGSFLFAGPTGVGKTEVTVQLSKALGIELLRFDMSEYMERHTVSRLIGAPPGYVGFDQGGLLTDAVIKHPHAVLLLDEIEKAHPDVFNILLQVMDNGTLTDNNGRKADFRNVVLVMTTNAGVRETERKSIGLIHQDNSTDAMEEIKKIFTPEFRNRLDNIIWFDHLSTDVIHQVVDKFIVELQVQLDQKGVSLEVSQEARNWLAEKGYDRAMGARPMARVIQDNLKKPLANELLFGSLVDGGQVTVALDKEKNELTYGFQSAQKHKAEAAH"}, "B2": {"name": "ClpA (wild type), ATPγS-assembled hexamer (enzyme, E. coli, UniProt P0ABH9 1-758, looked up)", "chain": "MLNQELELSLNMAFARAREHRHEFMTVEHLLLALLSNPSAREALEACSVDLVALRQELEAFIEQTTPVLPASEEERDTQPTLSFQRVLQRAVFHVQSSGRNEVTGANVLVAIFSEQESQAAYLLRKHEVSRLDVVNFISHGTRKDEPTQSSDPGSQPNSEEQAGGEERMENFTTNLNQLARVGGIDPLIGREKELERAIQVLCRRRKNNPLLVGESGVGKTAIAEGLAWRIVQGDVPEVMADCTIYSLDIGSLLAGTKYRGDFEKRFKALLKQLEQDTNSILFIDEIHTIIGAGAASGGQVDAANLIKPLLSSGKIRVIGSTTYQEFSNIFEKDRALARRFQKIDITEPSIEETVQIINGLKPKYEAHHDVRYTAKAVRAAVELAVKYINDRHLPDKAIDVIDEAGARARLMPVSKRKKTVNVADIESVVARIARIPEKSVSQSDRDTLKNLGDRLKMLVFGQDKAIEALTEAIKMARAGLGHEHKPVGSFLFAGPTGVGKTEVTVQLSKALGIELLRFDMSEYMERHTVSRLIGAPPGYVGFDQGGLLTDAVIKHPHAVLLLDEIEKAHPDVFNILLQVMDNGTLTDNNGRKADFRNVVLVMTTNAGVRETERKSIGLIHQDNSTDAMEEIKKIFTPEFRNRLDNIIWFDHLSTDVIHQVVDKFIVELQVQLDQKGVSLEVSQEARNWLAEKGYDRAMGARPMARVIQDNLKKPLANELLFGSLVDGGQVTVALDKEKNELTYGFQSAQKHKAEAAH"}, "B3": {"name": "ClpA-Δ10 (linker deletion mutant, residues 145 to 154 deleted) (enzyme, E. coli, UniProt P0ABH9 1-758, looked up)", "chain": "MLNQELELSLNMAFARAREHRHEFMTVEHLLLALLSNPSAREALEACSVDLVALRQELEAFIEQTTPVLPASEEERDTQPTLSFQRVLQRAVFHVQSSGRNEVTGANVLVAIFSEQESQAAYLLRKHEVSRLDVVNFISHGTRKSQPNSEEQAGGEERMENFTTNLNQLARVGGIDPLIGREKELERAIQVLCRRRKNNPLLVGESGVGKTAIAEGLAWRIVQGDVPEVMADCTIYSLDIGSLLAGTKYRGDFEKRFKALLKQLEQDTNSILFIDEIHTIIGAGAASGGQVDAANLIKPLLSSGKIRVIGSTTYQEFSNIFEKDRALARRFQKIDITEPSIEETVQIINGLKPKYEAHHDVRYTAKAVRAAVELAVKYINDRHLPDKAIDVIDEAGARARLMPVSKRKKTVNVADIESVVARIARIPEKSVSQSDRDTLKNLGDRLKMLVFGQDKAIEALTEAIKMARAGLGHEHKPVGSFLFAGPTGVGKTEVTVQLSKALGIELLRFDMSEYMERHTVSRLIGAPPGYVGFDQGGLLTDAVIKHPHAVLLLDEIEKAHPDVFNILLQVMDNGTLTDNNGRKADFRNVVLVMTTNAGVRETERKSIGLIHQDNSTDAMEEIKKIFTPEFRNRLDNIIWFDHLSTDVIHQVVDKFIVELQVQLDQKGVSLEVSQEARNWLAEKGYDRAMGARPMARVIQDNLKKPLANELLFGSLVDGGQVTVALDKEKNELTYGFQSAQKHKAEAAH"}}, "key": {"[1]": {"target": "ClpA-Δ10 (linker deletion mutant, residues 145 to 154 deleted) (E. coli) (UniProt P0ABH9)"}, "[2]": {"target": "ClpA-Δ153 (N-domain-deleted form of ClpA) (E. coli) (UniProt P0ABH9)"}, "[3]": {"target": "ClpA (wild type), ATPγS-assembled hexamer (E. coli) (UniProt P0ABH9)"}, "[4]": {"target": "ClpA-Δ15 (linker deletion mutant, residues 145 to 159 deleted) (E. coli) (UniProt P0ABH9)"}, "[5]": {"target": "T1, ClpP peptidase (tetradecamer) (UniProt P0A6G7 15-207)", "T1 sequence (P0A6G7 15-207)": "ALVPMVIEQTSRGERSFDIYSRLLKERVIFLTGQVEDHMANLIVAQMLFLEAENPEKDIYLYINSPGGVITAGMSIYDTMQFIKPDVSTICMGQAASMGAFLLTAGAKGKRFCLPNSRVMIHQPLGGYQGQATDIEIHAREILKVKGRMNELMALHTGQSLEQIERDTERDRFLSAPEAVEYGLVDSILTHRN", "test": "cryo-electron microscopy with 2D averaging and variance maps of side-views"}, "[6]": {"target": "the molecule itself", "test": "cryo-electron microscopy with 2D averaging and variance maps of side-views"}, "[7]": {"target": "T1, ClpP peptidase (tetradecamer)", "test": "cryo-EM structure"}, "cryo-EM structure": {"target": "the molecule itself", "test": "cryo-EM structure"}}, "note": "“And” between values parts separate entries of the source, which are not always exact repeats. Identical values can stand only once."}
{"molecule": "GFP-SsrA", "values": [{"measurement": "Km of GFP-SsrA degradation, 37 °C (μM protein monomer)", "setting": "[1]", "result": 1.7}, {"measurement": "Km of GFP-SsrA degradation, 37 °C (μM protein monomer)", "setting": "[2]", "result": 1}, {"measurement": "Km of GFP-SsrA degradation, 37 °C (μM protein monomer)", "setting": "[3]", "result": 1.7}, {"measurement": "Km of GFP-SsrA degradation, 37 °C (μM protein monomer)", "setting": "[4]", "result": 1.5}]}
{"molecule": "α-casein (natural protein)", "values": [{"measurement": "Km of α-casein degradation, 37 °C (μM protein monomer)", "setting": "[3]", "result": 0.2}, {"measurement": "Km of α-casein degradation, 37 °C (μM protein monomer)", "setting": "[4]", "result": 0.35}]}
{"molecule": "B1", "values": [{"measurement": "stoichiometry N", "setting": "[5]", "result": "1 ClpA hexamers per ClpP tetradecamer and 2 ClpA hexamers per ClpP tetradecamer"}, {"measurement": "stoichiometry N", "setting": "[6]", "result": 6, "unit": "subunits"}]}
{"molecule": "B2", "values": [{"measurement": "stoichiometry N", "setting": "[7]", "result": "1 ClpA hexamers per ClpP tetradecamer"}, {"measurement": "stoichiometry N", "setting": "cryo-EM structure", "result": 6, "unit": "subunits"}]}
{"molecule": "B3", "values": [{"measurement": "stoichiometry N", "setting": "[5]", "result": "1 ClpA hexamers per ClpP tetradecamer and 2 ClpA hexamers per ClpP tetradecamer"}, {"measurement": "stoichiometry N", "setting": "[6]", "result": 6, "unit": "subunits"}]}
